Laboratory results taken from the nanobody polyreactivity screen of Harvey et al. (2022).

Assay: yeast display, Sf9 membrane polyspecificity reagent, FACS + sequencing; frameworks hold sequencing errors
Procedure, shortened: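 Nanobodies came from a synthetic yeast display library in Saccharomyces cerevisiae BJ5465, induced with galactose for 36–48 hours and stained for 1 hour at 4 °C with 10% biotinylated, detergent-solubilized Sf9 membrane reagent. Cells were enriched on streptavidin microbeads and then FACS-sorted, with low and high (top ~1%) gates set on anti-HA fluorescence for expression and streptavidin fluorescence for reagent binding. Each polyreactivity label reflects the gate a clone came from. Genes were amplified by colony PCR, sequenced by MiSeq 2 × 250 and filtered by CDR length.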

Sequence | polyreactivity (PSR sort gate)
QVQLVESGGGLVQAGGSLRLSSAASGIIFAVYAMGWYRQAPGKERELVAAISTSGGRTYYADSVKGRFTISRDNAKNTVYLQMKSLKPEDTAVYYCAAPLRVSYDGMYYWGQGTQVTVSS | high polyreactivity
QVQLVDSGGGLVQAGGSLRISCPASGRIIDLNARGWYRQAPGKERELVAAISYSGGRTFYADSVKGRFTISRDNAKNTVDLQMISLKPEVTAVYYCNVRRGDRFVRHDYWGQGSQVTVSS | low polyreactivity
QVQLVESGGGLVQAGGSLRLSCAASGIIFGRYAMGWYRQATGTVRELVAASTRSGGRTYYADTVKGRFTISRDYAKNTVFVQMNSLKPEDTAVYYCSADASGHSYDYWGQGTQVTVSS | high polyreactivity
QVQLVESGGGLVQAGGSLRISCAASGSIFYGYAMGWYRQAPGKERELVAAITWSGGSTYYADSVKGRFTISRDNAKNTVYLQMNSLNPEDTAVYFCNAVSTRFRVRTSDYWGQGTQVTVSS | high polyreactivity
QVQLVDSGGGLVQAGGSLRLSCAASGLIIWRNAMGWYRQAPGKERELVAAITYSGSRTYYADSVKGRFTISRDNAKNTVYLLMNSLKPEDTAVYYCNADYYWYPYEDDNWGQGTQVTVSS | low polyreactivity
QVQLVESGGGLVQAGGSLRLICAASGFTFGPYDMGGYRQAPGKERELVAAITDSSGSTHYADSVKGRFTISRDNAKNTVYLQMNSLKPEDTAVYYCAASDVVFALNGYYPGEDDYWGQGTQVTVSS | low polyreactivity
QVQLVESGGGLVQAGGSLRLSCAASGIIFRRYAMGWYRQAPGKERELVAAIRTSGGNTYYADSVKRRFTISRDNAKNTVYLQMNSLKPEDTAVYYCAARKYHYRYGYWGQGTQVTVSS | high polyreactivity
QVQLVESGGGLVQAGGSLRLSCPASGFTFRRYAMGWSRQQPGKESELDAAITRNGGSTYYADSVKGRFTISRDNAKNTVYLLINRLKPEDTAVYYCNAVLYTPVYDCFDSWGQGTQVTVSS | high polyreactivity
QVQLVESGGGLVQAGGSLRLSCAASGSTFSTNFMGWYRQAPGKERELVAAISTIGGSTYADSVKGRFTISRDNAKNTVYLQMNSLKPEDTAVYYCAAVFRVRRKTYGYWGQGTQVTVSS | high polyreactivity
QVQLVESGGGLVQAGGSLRLSCAASGIIFPNYAMGWYRQAPGKERELVAAITTSGTSTYYADSVKGRFTISRDNAKNTVYLQMNSLKPEDTAVYYCAARPTGHWGGRYYYWGQGTQVTVSS | high polyreactivity
QVQLVESGGVLVQAGASLRLSCAASGLTFAVYTMGGYRQAPGKEMELVAAITWDGGITYYADSVKGRFTISRDNAKYTVYLQMNSLKPEDTAVYYCAADYALGEVYWYNYWGQGTQVTVSS | low polyreactivity
QVQLVESGGGLVQAGGSLRLSCAASGRIFYTNVMGWYRQAPGKERELVAAISTGGGRTYYADSVKGRFTISRDNAKNTVYLQMNSLKPEDTAVYYCAASGRYAIVWGDQYYGYYYWGQGTQVTVSS | high polyreactivity
QVQLVESGGGLVQAGGSLRLSCAASGSIFRYYVMGWYRQAPGKERELVASISYSVGRTYYADSVKGRFTISRDNAKNTVYLQMNSLKPEDTAVYYCAADRYWPYYSAYYTSYRMDYWGQGTQVTVSS | high polyreactivity
QVQLVESGGGLVQAGGSLRLSCAASGFILPYYTMGWYRQAPGKDRELVAAITYSGASPFYADSVKGRFTISRVNAKNTVYLQMNSLKPEDTGVYYGANEWSGWYESPLDDGDYDYWGQGTEVTVSS | low polyreactivity
QVQLVESGGGLVQAGGSLRLSCAASGRTFVRYTMGWYRQAPVKERELVATISYNGGRTYYADSVKGRFTISRDNAKNTVYLQMNSLKPEDTAVYYCATRLPKSSLHDYWGQGTQVTVSS | high polyreactivity
QVQLVESGVGLVQAGGSLRLSWAATGSIFPYNDLGWYRKAPGKERELVAAISDSAGTTYYADSVKGRFTISRDNAKNTVDLQMNSLKPEDTAGYYCAADSWDSQVVSYEYWGQGTQVTLSS | low polyreactivity
QVQLVESGGGLVQAGGSLRLSCAASGRTFRTYTMGWYRQAPGKEREFVAAINKSGGTTNYADSVKGRFTISRDNAKNTVYLQMNSLKPEDTAVYYCAKRGRSTYGYDYWGQGTQVTVSS | high polyreactivity
QVQLVESGGGLVQAGGSLRLICAASGGIFNYYAMGWYREAPGKERELVAAISASGGSTYYADSVKGRFTISRDNAKNTVYLQMNSLKPEDTAVYYCAAGLPYGYGYDYWGQGTQVTVSS | low polyreactivity
QVQLVESAGGLVQAGGSLRLSCAASGGIFSRYSMGWYRQAPGKERELVAAITRSGGSTYYADSVKGRFTISRDNAKNTVYLQLNSLKPEDTAVYYCSARRRGGSKYGYWGQGTQVTVSS | high polyreactivity
QVQLVESGGGLVQAGGSLRLSCAASGRIFGGYAMGWYRQAPGKERELVAAISSRGGSTYYADSVKGRFTISRDNAKNTVYLQMNSLNPEDTAVYYCARTKYGRYRYGEYDYWGQGTQVTVSS | high polyreactivity
QVQLLESGGGLVQARGSLRLSCAASGRILEGYAMGWYRPAPGKERELVAALSFSTTPTYYADSVKGRFTISRDNAKNTVYLQMYSLKPEDTAVDYCAADSQQSDYDYWGQGSQVTVSS | high polyreactivity
QVQLEDSGGGLVQAGGSLPLSCAASGLTFYVNARGWNRQAPGKERELVAGIDSGGSTYYAASVKGRFTISRDNAKNTVYLQMNSLKPEDTAVYYCAADEGYVWPYYGWGFGKYDYWGEGTQVTVSS | low polyreactivity

Sequence | polyreactivity (PSR sort gate)
QVQLVESGGGLVQAGGSLRLSCAASGFTFGVNAMGWYRQAPGKERELVAAISRSGGSTYYADSVKGRFTISRDNAKNTVYLEMNSLKPEDTAVYYCNKAYHRRDSEFGYWGQGTQVTVSS | high polyreactivity
QDQLVESGGGLVQAGGSLRLSCAASGSTFGYARGWYRQAPGKERELVAAITSTGGSTYYADSVKGRFTISRDNAKNTVYLQMNSLKPEDTAVYYCAAQVGRVYVVYPVYKYGYWGQGTQVTVSS | high polyreactivity
QVHLVESGGGLVQAGGSLRLSCADSGLTFVFYAMGWYRPAPGKERELVAAISWSTGRTYYPDSVKGRFTISRDTAKNTVYLQMNSLNPEDSAVYYCAASYLGRKYVYWGQGTQVTVSS | high polyreactivity
QVQRVESGGGLFQAGGSLRLSCAASGFIFASYTMGWYRQAPGKERELVAAISRAGSTYYADSVKGRFTITRDNAKNTVYFQMNSLKPEDTAVYYCNAVSWRTSRYDYWGQGTQVTVSS | high polyreactivity
QVQLVESGGGLVQAGGSLRLTCAAYGRIYINTMGWYRQPPGKERELVAAITWSGGNTYYADSVKGRFTISRDNAKNTVYLQMNSLKPEDTAVYYWAVGGYLRSVSYIRLGNYYWGQGTQVTVSS | high polyreactivity
QVQLVESGGGLVQAGGSLRLSCAASGFTLGYNAMGWYRQAPGKERELVAGITWSGGSTSYADSVKGRFTISRDNAKNTVYLQMYSLKPADTAVYYCAKLRRYSGWLPWPYAYDYWGQGTQVTVSS | high polyreactivity
QVQLVESGGGLVQAGGSLRLSCAASGYIFSYYAMGWYRQAPGKERELVAAINRSGGRTYYADSVKGRFTISRDNAKNTVYLQMNSLKPEDTAVYYCAADQLSDEYDYWGQGTQVTVSS | high polyreactivity
QVQLVESGGGIVQAGGSLRLSSAASGSTFVYNAMGSYRQAPGKERELVASITRSGSSTYYADSVKGRFTISRDNAKNTVYLQMNSLKPEDSAVYYCAVRYYVLSYYRYYYWGQGTQVTVSS | low polyreactivity
QVQLVESGGGLVQAGGSLRLSCAASGSIFNWYAMGWYRKAPGKERELVAAIRSGGNTKYADSVKGRFTISRDNAKNTVYLQMTSLKPEDTAVYYCAAGVYHRRLEYYYWGQGSQVTVSS | low polyreactivity
QVQLVETGGGLVQAGGSLRLSCAASGRTFGNYAMGWYRQAPGKERELVAAITSAGRTYYADSVKGRFTISRDNAKNTVYLQMNSLKPEDTAVYYCAVSVIYWSGSQVSVEYYYWGQGTQVTVSS | low polyreactivity
QVQLVESGGGLVQAGGSLRLSCAASGITFRRYTMGWYRQAPGKERELVAAITTNAGSTYYADSVKGRFTISRDNAKNTVYLQMNSLKPEDTAVYYCAARWYYPYRTRYSSSYGYWGQGTQVTVSS | high polyreactivity
QVQLVESGGGLVQAGGSLRLSCAASGFTFVSNDMGWYRQEPGKERELVAAISQGGGSTYYADSVKGRFTISRDNAKNTVYLQINSLKPEDTAVYYCAAEDVYFGYDYWGQGTQVTVSS | low polyreactivity
QVQHVESGGGLVQAGGSLRLSCAASGGIFVANAMGWYRQAPGKERELVAAISRSGGSTYYADSVKGRFTISRDNAKNTVYLQMNSLKPEDTAVYYCAAKSRRQYTVGLTSDYWGQGTQVTVSS | low polyreactivity
QVQLVESGGGLVQAGGSLRLSCAASGSIFVIYAMGWYRQAPGKERELVAAITYSGGSTYYADSVKGRFTISRDNAKNTVYLQMNSLKPEDTAVYYCAAVRDSRYYDYDYWGQGTQVTVSS | low polyreactivity
QVQLVESGGGLVQAGGSLRLSCAASGRTFRSYAMGRYRQAPGKVRELVAAISYGGGSTYYADSVKGRFTISRDNAKNTVYLQMNSLKPEDTAVYYCAAAGNKRGGYDYWGQGTQVTVSS | high polyreactivity
QVQLVESGGGLVQAGGSLRLSCAASGIIFRGYAMGWYRQAPGKERELVAGITSGGRTYYADSVKGRFTISRDNAKNTVYLQMNSLKPEDTAVYYCNADAYGDDWKIYDYWGQGTQVTVSS | low polyreactivity
QVQLVESGGGLVQAGGSLRLSCAASGIIFWLYTMGWYRQAPGKERELVAAITSGGSTYYADSVKGRFTISRDNAKNTVYIQMNSLKPEDTAVYYCAAVPRYRRGKYDYWGQGTQVTVSS | high polyreactivity
PVQLVESGGGLVQAGGSLRLSCAASGSTFVVYAMGWYRQAPGKERELVAAITSGVSTNYADSVKGRFTISRDNAKNTVYLQMNSLKPEDTAVYYCNKDVRPAYRWYDYWGQDTQVTVSS | low polyreactivity
QVQLVESGGGLVQAGGSLRISSAPSGITYYGNVMGWYRQAPGKERELVADISWSGGRTYYADSVKGRFTISRDNAKNTVYLQITSLKPEVTALYDCAAEGTTNRGVYASYDYWGQGTQVTVSS | low polyreactivity
QVQLVESGGGLVQAGGSLRLSCAASGSTFTTNAMGWYSQAPGKERELVATISGGGSTYYADSVKGRFTISRDNAKNTVYLQMNSLKPEDTAVYYCATDVQVPGIGRSVYAYEYWGQGTQVTVSS | low polyreactivity
QVQLVESGGGLFQAGGSLRFSCAASGIIFSTNAMGWYRQAPGKERELVATITSSSGRTYYADSVKGRFTISRDNAKNTLYLQMNSLKPEDTAVYYCATGGVLIKGHYYWGQGTQVTVSS | low polyreactivity
